Here are results for 2 proteins from publication PMC9477738, “PIF4 enhances DNA binding of CDF2 to co-regulate target gene expression and promote Arabidopsis hypocotyl cell elongation” (Nature Plants, 2022).

Residue numbers refer to the chain shown, from its start.

This series concerns the molecule itself. Description: SEC; gel filtration of a single MBP fusion protein (self-association); HiLoad 200, 25 mM Bis-Tris pH 8.0, 150 mM NaCl. Background: In gel filtration, larger molecules generally elute earlier.

B1: MBP-PIF4^bHLH (bHLH DNA-binding domain of PIF4 fused to N-terminal maltose binding protein) (domain or fragment, Arabidopsis thaliana, UniProt Q8W2F3 248-317, looked up)
chain: QRSGSNRRSRAAEVHNLSERRRRDRINERMKALQELIPHCSKTDKASILDEAIDYLKSLQLQLQVMWMGS
notes: codon-optimised for E. coli; also called PIF4 bHLH domain; PIF4^bHLH WT; source: E. coli ArcticExpress, purified (Ni-NTA, size-exclusion chromatography); not shown: MBP, N-terminal, kept
For the protein B1, the stoichiometry N (as a rule, the number of molecules, sites or subunits per partner or assembly) came out at 4.

B2: MBP-PIF4^(bHLH (Mu3)) (PIF4 bHLH domain mutated in Interface 3 and Interface 4) (domain or fragment, Arabidopsis thaliana, UniProt Q8W2F3 248-317, looked up)
chain: B1 chain with E28A, R29A, K31A, Q34A, E35A, Q64A, W67A
notes: source: E. coli ArcticExpress, purified (Ni-NTA, size-exclusion chromatography); not shown: MBP, N-terminal, kept
Take B2: the “stoichiometry N” value was 2.
